Data as given in paper PMC7948508, “Comparison of human poly-N-acetyl-lactosamine synthase structure with GT-A fold glycosyltransferases supports a modular assembly of catalytic subsites” (The Journal of Biological Chemistry, 2020).

Molecular target: the molecule itself
Test: SEC-MALS; 20 μl at 1 mg/ml on Superdex 75; 25 mM HEPES (pH 7.4), 150 mM NaCl, 0.02% NaN3

B1: catalytic domain of human β-1,3-N-acetylglucosaminyltransferase 2 (B3GNT2, residues 34–397) (domain or fragment, UniProt Q9NY97 34-397, looked up)
chain: EKNGKGEVIIPKEKFWKISTPPEAYWNREQEKLNRQYNPILSMLTNQTGEAGRLSNISHLNYCEPDLRVTSVVTGFNNLPDRFKDFLLYLRCRNYSLLIDQPDKCAKKPFLLLAIKSLTPHFARRQAIRESWGQESNAGNQTVVRVFLLGQTPPEDNHPDLSDMLKFESEKHQDILMWNYRDTFFNLSLKEVLFLRWVSTSCPDTEFVFKGDDDVFVNTHHILNYLNSLSKTKAKDLFIGDVIHNAGPHRDKKLKYYIPEVVYSGLYPPYAGGGGFLYSGHLALRLYHITDQVHLYPIDDVYTGMCLQKLGLVPEKHKGFRTFDIEEKNKNNICSYVDLMLVHSRKPQEMIDIWSQLQSAHLKC
modifications: N-glycans cut by EndoF1, leaving only a single GlcNAc residue attached to each Asn side chain (sequons N79, N89, N127, N173, N219); at Asn219 a Manβ1,4-GlcNAcβ1,4-GlcNAcβ- glycan is seen in the crystal structure
notes: also called B3GNT2 cat domain; B3GNT2 catalytic domain; source: HEK293S (GnTI-) cells, transient transfection, secreted; purified (Ni2+-NTA, TEV protease + EndoF1 cleavage, second Ni2+-NTA, Superdex 75); not shown: 8xHis, N-terminal, cleaved; AviTag, N-terminal, cleaved; superfolder GFP, N-terminal, cleaved
For B1, which “stoichiometry N” value is on record?
The value was 2.
